First the molecules themselves.
B2: wild-type trigger factor (natural protein)
chain: MQVSVETTQGLGRRVTITIAADSIETAVKSELVNVAKKVRIDGFRKGKVPMNIVAQRYGASVRQDVLGDLMSRNFIDAIIKEKINPAGAPTYVPGEYKLGEDFTYSVEFEVYPEVELQGLEAIEVEKPIVEVTDADVDGMLDTLRKQQATWKEKDGAVEAEDRVTIDFTGSVDGEEFEGGKASDFVLAMGQGRMIPGFEDGIKGHKAGEEFTIDVTFPEEYHAENLKGKAAKFAINLKKVEERELPELTAEFIKRFGVEDGSVEGLRAEVRKNMERELKSAIRNRVKSQAIEGLVKANDIDVPAALIDSEIDVLRRQAAQRFGGNEKQALELPRELFEEQAKRRVVVGLLLGEVIRTNELKADEERVKGLIEEMASAYEDPKEVIEFYSKNKELMDNMRNVALEEQAVEAVLAKAKVTEKETTFNELMNQQA
notes: trigger factor, a bacterial ATP-independent chaperone; results are mapped onto the crystal structure pdb 1w26; Monomer-dimer equilibrium; predominantly monomeric under the conditions used (low uM, 0.26 M GdnHCl); also called TF; source: E. coli BL21 (DE3), purified (Ni-His Trap, ULP1 cleavage, HiTrap Q, Superdex 75); not shown: His-Sumo, N-terminal, cleaved
B3: Fluorescein-5-maleimide-labelled trigger factor E326C (natural protein)
chain: MQVSVETTQGLGRRVTITIAADSIETAVKSELVNVAKKVRIDGFRKGKVPMNIVAQRYGASVRQDVLGDLMSRNFIDAIIKEKINPAGAPTYVPGEYKLGEDFTYSVEFEVYPEVELQGLEAIEVEKPIVEVTDADVDGMLDTLRKQQATWKEKDGAVEAEDRVTIDFTGSVDGEEFEGGKASDFVLAMGQGRMIPGFEDGIKGHKAGEEFTIDVTFPEEYHAENLKGKAAKFAINLKKVEERELPELTAEFIKRFGVEDGSVEGLRAEVRKNMERELKSAIRNRVKSQAIEGLVKANDIDVPAALIDSEIDVLRRQAAQRFGGNCKQALELPRELFEEQAKRRVVVGLLLGEVIRTNELKADEERVKGLIEEMASAYEDPKEVIEFYSKNKELMDNMRNVALEEQAVEAVLAKAKVTEKETTFNELMNQQA
modifications: fluorescein-5-maleimide on the cysteine of E326C
notes: Labelling efficiency typically above 92%; also called fluorescently labelling trigger factor; source: E. coli BL21 (DE3), purified (Ni-His Trap, ULP1 cleavage, HiTrap Q, Superdex 75), labelled with fluorescein-5-maleimide; not shown: His-Sumo, N-terminal, cleaved
B4: refolding glyceraldehyde 3-phosphate dehydrogenase (rabbit GAPDH, GdnHCl-denatured and diluted into refolding buffer) (enzyme)
chain: not shown
notes: glyceraldehyde 3-phosphate dehydrogenase, rabbit (rabbit-muscle GAPDH, pdb 1J0X); Native GAPDH is a tetramer; The protein from tissue likely lacks the initiator methionine (surmise); also called rGAPDH; source: bought: Sigma-Aldrich (G2267), purified rabbit GAPDH; denatured in 3 M GdnHCl and diluted into buffer A

Series [1] concerns the target B2. Nature of the series: fluorescence polarisation; stopped-flow anisotropy; 0.13 μM labelled denatured GAPDH mixed with 0.13–3.24 μM trigger factor; 0.1 M potassium phosphate pH 7.6, 0.1 M KCl, 1 mM TCEP, 0.26 M GdnHCl, 4 °C; linear fit of kobs against trigger factor concentration. The note with it: both partners purified. For orientation: Fluorescence polarisation rises when a labelled molecule tumbles more slowly, as on binding a larger partner.

For series [2], the target named is B4. Put plainly: AUC; sedimentation velocity; 5 μM refolding GAPDH alone or with 15 μM trigger factor; buffer A (0.1 M potassium phosphate pH 7.5, 0.1 M KCl, 1 mM TCEP) with 0.26 M GdnHCl, 4 °C, 40,000 r.p.m. The note with it: both partners purified.
Series [3] deals with T1, refolding Vibrio harveyi luciferase (urea-denatured and diluted into refolding buffer) (Vibrio harveyi, UniProt P07740 1-355; P07739 1-324).
T1 construct: alpha subunit of the heterodimeric flavin monooxygenase luciferase of Vibrio harveyi; beta subunit of the heterodimeric flavin monooxygenase luciferase of Vibrio harveyi; In the assays the heterodimer was urea-denatured; also called luciferase subunits; source: E. coli (pET21b), purified (Ni-His Trap, Superdex 75); denatured in 5 M urea and diluted into buffer A; not shown: His tag (on the …)
T1 sequence (looked up) 1: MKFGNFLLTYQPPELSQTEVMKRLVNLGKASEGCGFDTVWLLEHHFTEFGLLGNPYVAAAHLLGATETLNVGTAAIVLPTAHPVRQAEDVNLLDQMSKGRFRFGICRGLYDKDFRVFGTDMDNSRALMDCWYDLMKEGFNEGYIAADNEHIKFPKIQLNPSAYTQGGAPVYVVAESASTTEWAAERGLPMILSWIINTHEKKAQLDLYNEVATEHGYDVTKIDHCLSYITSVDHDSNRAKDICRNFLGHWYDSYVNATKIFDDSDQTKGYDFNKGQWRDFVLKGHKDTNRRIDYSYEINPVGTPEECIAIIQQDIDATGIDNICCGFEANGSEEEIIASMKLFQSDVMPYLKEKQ
T1 sequence (looked up) 2: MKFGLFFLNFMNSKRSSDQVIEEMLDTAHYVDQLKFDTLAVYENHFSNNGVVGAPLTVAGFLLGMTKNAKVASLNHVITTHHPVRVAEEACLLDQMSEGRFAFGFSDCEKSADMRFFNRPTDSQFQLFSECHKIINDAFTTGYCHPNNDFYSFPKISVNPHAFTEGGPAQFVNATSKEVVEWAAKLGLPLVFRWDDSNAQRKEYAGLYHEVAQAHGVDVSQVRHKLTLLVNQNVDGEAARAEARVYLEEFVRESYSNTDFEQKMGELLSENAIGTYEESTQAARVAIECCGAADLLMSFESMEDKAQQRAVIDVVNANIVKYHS
Put plainly: AUC; sedimentation velocity; 2 μM refolding luciferase alone or with 16 μM trigger factor; buffer A with 0.1 M urea, 4 °C, 35,000 r.p.m. The note with it: both partners purified.

The target of series [4] is T1, refolding Vibrio harveyi luciferase …. Nature of the series: fluorescence polarisation; anisotropy titration; 0.5 μM fluorescein-labelled trigger factor E326C titrated with urea-denatured luciferase; buffer A, 25 °C; hyperbola fit; apparent. The note with it: both partners purified.
Series [5] deals with the molecule itself. Nature of the series: AUC; sedimentation velocity; 5 μM refolding GAPDH alone or with 15 μM trigger factor; buffer A (0.1 M potassium phosphate pH 7.5, 0.1 M KCl, 1 mM TCEP) with 0.26 M GdnHCl, 4 °C, 40,000 r.p.m.
Series [6] addresses B3. Put plainly: fluorescence polarisation; anisotropy titration; 0.5 μM fluorescein-labelled trigger factor E326C titrated with GdnHCl-denatured GAPDH; buffer A, 4 °C; quadratic fit; apparent. The note with it: both partners purified.
Series [7] concerns the target B2. Put plainly: cross-linking; XL-MS; 6 μM denatured GAPDH diluted into buffer A with equimolar trigger factor (0.26 M GdnHCl), 2 h on ice, then 2 mM disuccinimidyl dibutyric urea 2 h on ice; SDS–PAGE and LC–MS. The note with it: both partners purified.

B1: Alexa Fluor 488-labelled GAPDH (enzyme)
chain: not shown
modifications: CF Fluor 488 A maleimide (called Alexa Fluor 488) on cysteine; the paper says only Cys 149 is solvent-exposed in the native tetramer
notes: glyceraldehyde 3-phosphate dehydrogenase, rabbit; Labelling efficiency typically above 98%; also called fluorophore labelled GAPDH; source: bought: Sigma-Aldrich (G2267), labelled with CF Fluor 488A maleimide, denatured in GdnHCl
For the molecule B1, in the series with wild-type trigger factor [1], the koff (in general, the first-order rate constant of dissociation) came out at 8.7 s⁻¹ and the kon (usually the second-order rate constant of association) came out at 6.6e+06 M⁻¹ s⁻¹.
As to B2, the “stoichiometry N” value in series [2] and in series [3] was 1 each time.
Turning to B3, the Kd in series [4] is 4500 nM.
Take B4: the binding result (in series [5]; in the series with wild-type trigger factor [7]) was “binds” throughout. Besides, the Kd in series [6] is 320 nM.

These data come from publication PMC9287376 (Nature Communications, 2022).
